Data reported in publication doi:10.1101/2021.03.19.436134.
“And” between values parts separate entries of the source, which are not always exact repeats. Equal values may be shown once.

Legend:
[1] = target: PfArlH^S109C, single cysteine mutant of Pyrococcus furiosus ArlH labelled with Atto550 and Atto647N, non-phosphorylated (Pyrococcus furiosus); test: single-molecule TIRF photobleaching step counting
[2] = target: biotinylated PfArlI, ArlI motor ATPase of Pyrococcus furiosus with AviTag, unlabelled, immobilised (Pyrococcus furiosus); test: single-molecule TIRF photobleaching step counting
[3] = target: SaArlH, ArlH of Sulfolobus acidocaldarius, His-tagged, non-phosphorylated (Sulfolobus acidocaldarius); test: BLI
[4] = target: labelled, biotinylated PfArlI^C290S/T411C (Pyrococcus furiosus); test: single-molecule TIRF photobleaching step counting

## PfArlH^S109C, single cysteine mutant of Pyrococcus furiosus ArlH labelled with Atto550 and Atto647N, non-phosphorylated (natural protein)
[1]
  stoichiometry N: 6 and 3
[2]
  stoichiometry N: 1

## SaArlI, ArlI motor ATPase of Sulfolobus acidocaldarius (Strep-SaArlI) (enzyme)
[3]
  Kd: 638 nM

## labelled, biotinylated PfArlI^C290S/T411C (enzyme)
[4]
  stoichiometry N: 3 and 2 and 6
